These results are taken from publication PMC4092090, “Investigation of a MMP-2 Activity-Dependent Anchoring Probe for Nuclear Imaging of Cancer” (PLoS ONE, 2014).

“Also recorded” adds a separate entry of the source.

The format of series [1] is physicochemical. The settings on record: pH 7.4. As to the method: The experimental determination of probe partition coefficients (log P values) was performed in 1-octanol and 0.02 M phosphate buffer pH 7.4 where the two phases were pre-saturated with each other. 1-Octanol (200 µl) and phosphate buffer (200 µl) were pipetted into LoBind Eppendorf tubes containing 0.37 MBq of probes. The tube was vortexed for 10 seconds, and centrifuged (5 min, 4000×g). Aliquots (50 µl) from the 1-octanol and buffer phases were transferred into two test tubes for radioactivity counting with a NaI well-type scintillation counter (1470 WIZARD, Perkin Elmer, Kanagawa, Japan). The partition coefficient was calculated using the equation P = (counts/µl in 1-octanol)/(counts/µl in buffer).

For series [2], the system named is HT1080 human fibrosarcoma cells. Nature of the series: Cellular uptake study. The conditions noted are these: 5×10^5 HT1080 cells, FBS-free DMEM, 37 kBq probe, 30 min incubation, radioactivity counting, Fig. 3a. It counts as cell-based. As to the method: HT1080 human fibrosarcoma cells were purchased from American Type Culture Collection (ATCC, Manassas, VA USA) and cultured in DMEM with low glucose (Invitrogen), 10% fetal bovine serum (FBS), and penicillin/streptomycin. MMP-2 cDNA was cloned into the pENTR vector (Invitrogen) and inserted into the pLenti6 vector (Invitrogen) as previously described, [7]. […] Protein quantitation was performed by BCA protein assay (Thermo Fisher Scientific, Inc. Rockford, IL USA). The cellular uptake study of MDAP3000 pretreated with activated MMP-2 (63 nM) in the presence or absence of GM6001 (100 µM) was performed as described above.

Series [3] has as its target T1, Human-recombinant MMP-2 protein (Homo sapiens, UniProt P08253).
T1 construct: purchased R & D Systems, Inc. 902-MP-010
T1 sequence (P08253 110-660): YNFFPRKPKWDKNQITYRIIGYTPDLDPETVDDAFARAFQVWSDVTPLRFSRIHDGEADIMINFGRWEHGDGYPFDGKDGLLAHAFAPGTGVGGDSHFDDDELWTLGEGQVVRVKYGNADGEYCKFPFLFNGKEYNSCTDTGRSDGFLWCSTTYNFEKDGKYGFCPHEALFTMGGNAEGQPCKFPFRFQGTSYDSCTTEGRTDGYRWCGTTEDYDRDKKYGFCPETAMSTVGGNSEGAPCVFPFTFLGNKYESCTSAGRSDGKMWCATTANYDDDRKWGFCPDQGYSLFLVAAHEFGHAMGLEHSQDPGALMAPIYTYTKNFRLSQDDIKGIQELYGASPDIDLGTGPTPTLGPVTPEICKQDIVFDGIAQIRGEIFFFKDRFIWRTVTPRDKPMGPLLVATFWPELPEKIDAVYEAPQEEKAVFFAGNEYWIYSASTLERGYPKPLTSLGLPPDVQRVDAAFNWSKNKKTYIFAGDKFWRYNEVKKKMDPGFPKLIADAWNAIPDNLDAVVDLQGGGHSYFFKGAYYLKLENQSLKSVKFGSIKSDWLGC
The series is described as follows: Cleavage assay. Type of series: biochemical. The settings on record: activated MMP-2 1–5 nM, 370 kBq probe, 37°C, 2 hr, pH 7.5 assay buffer, RP-HPLC, Fig. 3b. Here is the method:
Human-recombinant MMP-2 protein (902-MP-010, R & D Systems, Inc., Minneapolis, MN USA) was activated with p-aminophenylmercuric acetate (1 mM) in assay buffer (50 mM Tris-HCl, 150 mM NaCl, 10 mM CaCl2, 5 µM ZnCl2, 0.02% Brij 35, pH 7.5). MDAP1000, MDAP3000, and MDAP5000 (370 kBq) were incubated at 37°C for 2 hr with activated MMP-2 (1–5 nM) and a MMP inhibitor (0 or 100 µM, GM6001, Merck KGaA, Darmstadt, Germany). The reaction was quenched by addition of methanol, and the percentage of cleaved peptide was estimated by RP-HPLC.

Series [4] concerns HT1080 tumor bearing mice. Further details: species or system mouse (Balb/c nu-nu). The conditions noted are these: mouse, in vivo, iv. Here is the method: Female Balb/c nu-nu mice (5 weeks old, Japan SLC, Inc., Shizuoka, Japan) were housed under a 12-h light/12-h dark cycle and given free access to food and water. HT1080 cells (5×10^6 cells/100 μl PBS (-)/mouse) were subcutaneously inoculated into the right hind leg of Balb/c nu-nu mice. Animals were used for experiments two weeks after inoculation when the mean tumor size was 5.7±2.2 mm along the major axis. […]3000 and […] (37 kBq, 100 μl in PBS including 3% bovine serum albumin and 0.1% Tween 80) were injected intravenously into the tail vein of tumor bearing mice. The mice were sacrificed at various post-injection time points (n = 3 for each time point), and the organs of interest including the tumor tissues were collected for determination of the weights. The radioactivity of each sample was measured with a NaI well-type scintillation counter. From fitting to the two phase decay curves for blood radioactivity data analyzed by GraphPad Prism 6 (GraphPad Software, San Diego, CA), whole body pharmacokinetic parameters such as blood half-lives, distribution volume, mean residence time and total clearance were calculated for each of the probes and the values compared. Simple pharmacokinetic analysis using a single tissue compartment model was applied to the biodistribution data to calculate rate constants (K1 and k2) for radioactivity transfer from blood to tumor and clearance from tumor to blood by PMOD version 3.2. In addition, MDAP3000 (7.4 MBq in 200 μl) was injected intravenously into the tail vein of tumor bearing mice for metabolite analysis in tumors excised 3, 6, and 24 hr post injection (n = 2 each). Tumor homogenates were prepared on ice and insoluble material was removed by centrifugation after methanol treatment. The resulting supernatant was analyzed by RP-HPLC.

The subject of series [5] is HT1080 tumor bearing mice. On the set-up: species or system mouse (Balb/c nu-nu). The conditions noted are these: mouse, in vivo, iv. Here is the method:
(§1) […]3000 and […] (37 kBq, 100 μl in PBS including 3% bovine serum albumin and 0.1% Tween 80) were injected intravenously into the tail vein of tumor bearing mice. The mice were sacrificed at various post-injection time points (n = 3 for each time point), and the organs of interest including the tumor tissues were collected for determination of the weights. The radioactivity of each sample was measured with a NaI well-type scintillation counter. From fitting to the two phase decay curves for blood radioactivity data analyzed by GraphPad Prism 6 (GraphPad Software, San Diego, CA), whole body pharmacokinetic parameters such as blood half-lives, distribution volume, mean residence time and total clearance were calculated for each of the probes and the values compared. Simple pharmacokinetic analysis using a single tissue compartment model was applied to the biodistribution data to calculate rate constants (K1 and k2) for radioactivity transfer from blood to tumor and clearance from tumor to blood by PMOD version 3.2. In addition, MDAP3000 (7.4 MBq in 200 μl) was injected intravenously into the tail vein of tumor bearing mice for metabolite analysis in tumors excised 3, 6, and 24 hr post injection (n = 2 each). Tumor homogenates were prepared on ice and insoluble material was removed by centrifugation after methanol treatment. The resulting supernatant was analyzed by RP-HPLC.
The source holds these as a separate data set.

The test system of a further series is HT1080 tumor xenograft. On the set-up: species or system mouse (Balb/c nu-nu). The settings on record: mouse, in vivo, iv. As to the method:
as §1

For “Palmitoyl-Dap(p-SCN-Bn-DTPA-^111In)-10-Adc-Gly-Pro-Leu-Gly-Val-Arg-Gly-Lys(ivDde)-PEG5000 [MDAP5000]”, the “log P (partition coefficient)” value in series [1] is reported as −1.04±0.16. The “Cellular accumulation (radioactivity in tumor cells)” value in series [2] is reported as “significantly lower radioactivity”. Also, in series [3], the “Cleavage by MMP-2” value is listed as “concentration-dependent manner; also recorded: rather low”.
Consider “Palmitoyl-Dap(p-SCN-Bn-DTPA-^111In)-10-Adc-Gly-Pro-Leu-Gly-OH [MDAPCV]”, for which the “log P (partition coefficient)” value in series [1] is recorded as 0.29±0.07. Also, in series [2], the “Cellular accumulation (radioactivity in tumor cells)” value is given as “high accumulation group”. In series [4], the “Blood clearance (in words)” value is recorded as “slow blood clearance” and the “T/B ratios over the experimental period” value is “less than 0.3”. Also, in series [5], the “Blood half-life, Fast” value stood at 4.17 h; the “Clearance (total clearance)” value came to 0.0025 mL/min; the Distribution volume turned out to be 2.16 mL; the Mean residence time came out at 860 min. In the series with HT1080 tumor xenograft, the “K1, rate constant for transfer from blood to tumor, Mean” value was found to be 0.0022 mL/g/min.
